Experiments:
[1] = biological target: Mt-Lig expressed in yeast as amino-terminal Myc epitope-NLS fusion protein (pNLS16) (Mycobacterium tuberculosis) (UniProt P9WNV3); assay: cell-based or functional assay
[2] = biological target: Mt-Lig (Mycobacterium tuberculosis ATP-dependent ligase, ORF Rv0938), recombinant histidine-tagged (Mycobacterium tuberculosis, UniProt P9WNV3 1-759); assay: cell-based or functional assay
Sequence of Mt-Lig (Mycobacterium tuberculosis ATP-dependent ligase, ORF Rv0938), recombinant histidine-tagged (P9WNV3 whole entry): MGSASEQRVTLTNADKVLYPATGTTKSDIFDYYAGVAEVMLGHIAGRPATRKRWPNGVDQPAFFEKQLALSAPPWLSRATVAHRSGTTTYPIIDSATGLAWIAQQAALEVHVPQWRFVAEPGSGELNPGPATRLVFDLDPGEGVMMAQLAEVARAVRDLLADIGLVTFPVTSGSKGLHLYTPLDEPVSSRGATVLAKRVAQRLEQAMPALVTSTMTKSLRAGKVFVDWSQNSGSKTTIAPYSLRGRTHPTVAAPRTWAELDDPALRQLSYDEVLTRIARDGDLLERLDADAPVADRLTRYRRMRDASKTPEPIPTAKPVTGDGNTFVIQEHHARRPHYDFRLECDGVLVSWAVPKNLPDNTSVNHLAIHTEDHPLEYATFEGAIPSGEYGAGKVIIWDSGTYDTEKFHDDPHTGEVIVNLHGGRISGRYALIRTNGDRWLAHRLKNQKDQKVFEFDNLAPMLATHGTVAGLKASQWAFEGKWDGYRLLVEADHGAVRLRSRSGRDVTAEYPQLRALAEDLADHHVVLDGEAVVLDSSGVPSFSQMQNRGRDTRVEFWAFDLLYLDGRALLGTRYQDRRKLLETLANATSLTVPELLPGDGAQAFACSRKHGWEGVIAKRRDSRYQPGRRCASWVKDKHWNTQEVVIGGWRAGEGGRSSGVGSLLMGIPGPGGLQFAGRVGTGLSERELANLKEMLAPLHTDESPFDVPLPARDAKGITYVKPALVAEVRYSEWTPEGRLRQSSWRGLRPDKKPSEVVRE

Sequence of Mt-Lig expressed in yeast as amino-terminal Myc epitope-NLS fusion protein (pNLS16) (Mycobacterium tuberculosis) (P9WNV3 whole entry, the tested form may be a part): as the sequence (P9WNV3 whole entry) above

Molecule | NHEJ frequency in yku70 mutant yeast (suicide deletion assay) (% of the wild-type yeast level) [1] | DNA ligation activity of Mt-Lig on dsDNA fragments upon addition of Mt-Ku [2] [fold] | activity of Mt-Lig in an in vitro plasmid repair assay [2] [fold]
Mt-Ku expressed in yeast as amino-terminal Myc epitope-NLS fusion protein (pNLS15) (from UniProt P9WKD8 1-273) | 50 |  | 
Mt-Ku (Mycobacterium tuberculosis Ku-like protein, ORF Rv0937c), recombinant histidine-tagged (other) MRAIWTGSIAFGLVNVPVKVYSATADHDIRFHQVHAKDNGRIRYKRVCEACGEVVDYRDLARAYESGDGQMVAITDDDIASLPEERSREIEVLEFVPAADVDPMMFDRSYFLEPDSKSSKSYVLLAKTLAETDRMAIVHFTLRNKTRLAALRVKDFGKREVMMVHTLLWPDEIRDPDFPVLDQKVEIKPAELKMAGQVVDSMADDFNPDRYHDTYQEQLQELIDTKLEGGQAFTAEDQPRLLDEPEDVSDLLAKLEASVKARSKANSNVPTPP |  | > 30 | 20
